Sequences and labels used below:
B1: library; numbered along this chain (parent)
chain: MEVVDPQQLGMFTEGELMSVGMDTFIHRIDSTEVIYQPRRKRAKLIGKYLMGDLLGEGSYGKVKEVLDSETLCRRAVKILKKKKLRRIPNGEANVKKEIQLLRRLRHKNVIQLVDVLYNEEKQKMYMVMEYCVCGMQEMLDSVPEKRFPVCQAHGYFCQLIDGLEYLHSQGIVHKDIKPGNLLLTTGGTLKISDLGVAEALHPFAADDTCRTSQGSPAFQPPEIANGLDTFSGFKVDIWSAGVTLYNITTGLYPFEGDNIYKLFENIGKGSYAIPGDCGPPLSDLLKGMLEYEPAKRFSIRQIRQHSWFRKKHPPAEAPVPIPPSPDTKDRWRSMTVVPYLEDLHGADEDEDLFDIEDDIIYTQDFTVPGQVPEEEASHNGQRRGLPKAVCMNGTEAAQLSTKSRAEGRAPNPARKACSASSKIRRLSACKQQ

± gives the uncertainty stated by the source.

The variants in the data set derive from B1. Kind of data set: STK11 functional score (HeLa growth suppression), rescaled enrichment; synonymous median = 1, nonsense median = 0 (normalised score). The settings on record: with HeLa; variant type: missense. Summed up:
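Functional scores are post/pre-selection log ratios corrected to wild type, rescaled to synonymous and nonsense medians, merged over codons and replicate transfections, and given bootstrapped error. They come from POPCode libraries of codon-optimised STK11 integrated by Bxb1 at an AAVS1 landing pad in HeLa, three regions each transfected three times, with BFP-negative, mCherry-positive integrants sorted by FACS and tiled gDNA amplicons sequenced on NextSeq.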
As to MEVVDPQQLGMFTEGELMSVGMDTFIHRIDSTEVIYQPRRKRAKLIGKYLMGDLLGEGSYGKVKEVLDSETLCRRAVKILKKKKLRRIPNGEANVKKEIQLLRRLRHKNVIQLVDVLYNEEKQKMYMVMEYCVCGMQEMLDSVPEKRFPVCQAHGYFCQLIDGLEYLHSQGIVHKDIKPGNLLLTTGGTLKISDLGVAEALHPFAADDTCRTSQGSPAFQPPEIANGLDTFSGFKVDIWSAGVTLYNITTGLYPFEGDNIYKLFENIGKGSYAIPGDCGPPLSDLLKGMLEYEPAKRYSIRQIRQHSWFRKKHPPAEAPVPIPPSPDTKDRWRSMTVVPYLEDLHGADEDEDLFDIEDDIIYTQDFTVPGQVPEEEASHNGQRRGLPKAVCMNGTEAAQLSTKSRAEGRAPNPARKACSASSKIRRLSACKQQ [F298Y], the STK11 functional score stood at 0.754 ± 0.77.
To MEVVDPQQLGMFTEGELMSVGMDTFIHRIDSTEVIYQPRRKRAKLIGKYLMGDLLGEGSYGKVKEVLDSETLCRRAVKILKKKKLRRIPNGEANVKKEIQLLRRLRHKNVIQLVDVLYNEEKQKMYMVMEYCVCGMQEMLDSVPEKRFPVCQAHGYFCQLIDGLEYLHSQGIVHKDIKPGNLLLTTGGTLKISDLGVAEALHPFAADDTCRTSQGSPAFQPPEIANGLDTFSGFKVDIWSAGVTLYNITTGLYPFEGDNIYKLFENIGKGSYAIPGDCGPPLSDLLKGMLEYEPAKRFGIRQIRQHSWFRKKHPPAEAPVPIPPSPDTKDRWRSMTVVPYLEDLHGADEDEDLFDIEDDIIYTQDFTVPGQVPEEEASHNGQRRGLPKAVCMNGTEAAQLSTKSRAEGRAPNPARKACSASSKIRRLSACKQQ [S299G] belongs 1.18 ± 0.52; to MEVVDPQQLGMFTEGELMSVGMDTFIHRIDSTEVIYQPRRKRAKLIGKYLMGDLLGEGSYGKVKEVLDSETLCRRAVKILKKKKLRRIPNGEANVKKEIQLLRRLRHKNVIQLVDVLYNEEKQKMYMVMEYCVCGMQEMLDSVPEKRFPVCQAHGYFCQLIDGLEYLHSQGIVHKDIKPGNLLLTTGGTLKISDLGVAEALHPFAADDTCRTSQGSPAFQPPEIANGLDTFSGFKVDIWSAGVTLYNITTGLYPFEGDNIYKLFENIGKGSYAIPGDCGPPLSDLLKGMLEYEPAKRFFIRQIRQHSWFRKKHPPAEAPVPIPPSPDTKDRWRSMTVVPYLEDLHGADEDEDLFDIEDDIIYTQDFTVPGQVPEEEASHNGQRRGLPKAVCMNGTEAAQLSTKSRAEGRAPNPARKACSASSKIRRLSACKQQ [S299F], 0.544 ± 0.1.
To MEVVDPQQLGMFTEGELMSVGMDTFIHRIDSTEVIYQPRRKRAKLIGKYLMGDLLGEGSYGKVKEVLDSETLCRRAVKILKKKKLRRIPNGEANVKKEIQLLRRLRHKNVIQLVDVLYNEEKQKMYMVMEYCVCGMQEMLDSVPEKRFPVCQAHGYFCQLIDGLEYLHSQGIVHKDIKPGNLLLTTGGTLKISDLGVAEALHPFAADDTCRTSQGSPAFQPPEIANGLDTFSGFKVDIWSAGVTLYNITTGLYPFEGDNIYKLFENIGKGSYAIPGDCGPPLSDLLKGMLEYEPAKRFNIRQIRQHSWFRKKHPPAEAPVPIPPSPDTKDRWRSMTVVPYLEDLHGADEDEDLFDIEDDIIYTQDFTVPGQVPEEEASHNGQRRGLPKAVCMNGTEAAQLSTKSRAEGRAPNPARKACSASSKIRRLSACKQQ [S299N] belongs 1.59 ± 0.16; to MEVVDPQQLGMFTEGELMSVGMDTFIHRIDSTEVIYQPRRKRAKLIGKYLMGDLLGEGSYGKVKEVLDSETLCRRAVKILKKKKLRRIPNGEANVKKEIQLLRRLRHKNVIQLVDVLYNEEKQKMYMVMEYCVCGMQEMLDSVPEKRFPVCQAHGYFCQLIDGLEYLHSQGIVHKDIKPGNLLLTTGGTLKISDLGVAEALHPFAADDTCRTSQGSPAFQPPEIANGLDTFSGFKVDIWSAGVTLYNITTGLYPFEGDNIYKLFENIGKGSYAIPGDCGPPLSDLLKGMLEYEPAKRFRIRQIRQHSWFRKKHPPAEAPVPIPPSPDTKDRWRSMTVVPYLEDLHGADEDEDLFDIEDDIIYTQDFTVPGQVPEEEASHNGQRRGLPKAVCMNGTEAAQLSTKSRAEGRAPNPARKACSASSKIRRLSACKQQ [S299R], 1.53 ± 0.18.
To MEVVDPQQLGMFTEGELMSVGMDTFIHRIDSTEVIYQPRRKRAKLIGKYLMGDLLGEGSYGKVKEVLDSETLCRRAVKILKKKKLRRIPNGEANVKKEIQLLRRLRHKNVIQLVDVLYNEEKQKMYMVMEYCVCGMQEMLDSVPEKRFPVCQAHGYFCQLIDGLEYLHSQGIVHKDIKPGNLLLTTGGTLKISDLGVAEALHPFAADDTCRTSQGSPAFQPPEIANGLDTFSGFKVDIWSAGVTLYNITTGLYPFEGDNIYKLFENIGKGSYAIPGDCGPPLSDLLKGMLEYEPAKRFEIRQIRQHSWFRKKHPPAEAPVPIPPSPDTKDRWRSMTVVPYLEDLHGADEDEDLFDIEDDIIYTQDFTVPGQVPEEEASHNGQRRGLPKAVCMNGTEAAQLSTKSRAEGRAPNPARKACSASSKIRRLSACKQQ [S299E] belongs 1.56 ± 0.15; to MEVVDPQQLGMFTEGELMSVGMDTFIHRIDSTEVIYQPRRKRAKLIGKYLMGDLLGEGSYGKVKEVLDSETLCRRAVKILKKKKLRRIPNGEANVKKEIQLLRRLRHKNVIQLVDVLYNEEKQKMYMVMEYCVCGMQEMLDSVPEKRFPVCQAHGYFCQLIDGLEYLHSQGIVHKDIKPGNLLLTTGGTLKISDLGVAEALHPFAADDTCRTSQGSPAFQPPEIANGLDTFSGFKVDIWSAGVTLYNITTGLYPFEGDNIYKLFENIGKGSYAIPGDCGPPLSDLLKGMLEYEPAKRFVIRQIRQHSWFRKKHPPAEAPVPIPPSPDTKDRWRSMTVVPYLEDLHGADEDEDLFDIEDDIIYTQDFTVPGQVPEEEASHNGQRRGLPKAVCMNGTEAAQLSTKSRAEGRAPNPARKACSASSKIRRLSACKQQ [S299V], 0.978 ± 0.26.
Consider MEVVDPQQLGMFTEGELMSVGMDTFIHRIDSTEVIYQPRRKRAKLIGKYLMGDLLGEGSYGKVKEVLDSETLCRRAVKILKKKKLRRIPNGEANVKKEIQLLRRLRHKNVIQLVDVLYNEEKQKMYMVMEYCVCGMQEMLDSVPEKRFPVCQAHGYFCQLIDGLEYLHSQGIVHKDIKPGNLLLTTGGTLKISDLGVAEALHPFAADDTCRTSQGSPAFQPPEIANGLDTFSGFKVDIWSAGVTLYNITTGLYPFEGDNIYKLFENIGKGSYAIPGDCGPPLSDLLKGMLEYEPAKRFWIRQIRQHSWFRKKHPPAEAPVPIPPSPDTKDRWRSMTVVPYLEDLHGADEDEDLFDIEDDIIYTQDFTVPGQVPEEEASHNGQRRGLPKAVCMNGTEAAQLSTKSRAEGRAPNPARKACSASSKIRRLSACKQQ [S299W], for which the STK11 functional score amounted to 1.24 ± 0.14.
To MEVVDPQQLGMFTEGELMSVGMDTFIHRIDSTEVIYQPRRKRAKLIGKYLMGDLLGEGSYGKVKEVLDSETLCRRAVKILKKKKLRRIPNGEANVKKEIQLLRRLRHKNVIQLVDVLYNEEKQKMYMVMEYCVCGMQEMLDSVPEKRFPVCQAHGYFCQLIDGLEYLHSQGIVHKDIKPGNLLLTTGGTLKISDLGVAEALHPFAADDTCRTSQGSPAFQPPEIANGLDTFSGFKVDIWSAGVTLYNITTGLYPFEGDNIYKLFENIGKGSYAIPGDCGPPLSDLLKGMLEYEPAKRFAIRQIRQHSWFRKKHPPAEAPVPIPPSPDTKDRWRSMTVVPYLEDLHGADEDEDLFDIEDDIIYTQDFTVPGQVPEEEASHNGQRRGLPKAVCMNGTEAAQLSTKSRAEGRAPNPARKACSASSKIRRLSACKQQ [S299A] belongs 1.42 ± 0.15; to MEVVDPQQLGMFTEGELMSVGMDTFIHRIDSTEVIYQPRRKRAKLIGKYLMGDLLGEGSYGKVKEVLDSETLCRRAVKILKKKKLRRIPNGEANVKKEIQLLRRLRHKNVIQLVDVLYNEEKQKMYMVMEYCVCGMQEMLDSVPEKRFPVCQAHGYFCQLIDGLEYLHSQGIVHKDIKPGNLLLTTGGTLKISDLGVAEALHPFAADDTCRTSQGSPAFQPPEIANGLDTFSGFKVDIWSAGVTLYNITTGLYPFEGDNIYKLFENIGKGSYAIPGDCGPPLSDLLKGMLEYEPAKRFIIRQIRQHSWFRKKHPPAEAPVPIPPSPDTKDRWRSMTVVPYLEDLHGADEDEDLFDIEDDIIYTQDFTVPGQVPEEEASHNGQRRGLPKAVCMNGTEAAQLSTKSRAEGRAPNPARKACSASSKIRRLSACKQQ [S299I], 1.25 ± 0.34; to MEVVDPQQLGMFTEGELMSVGMDTFIHRIDSTEVIYQPRRKRAKLIGKYLMGDLLGEGSYGKVKEVLDSETLCRRAVKILKKKKLRRIPNGEANVKKEIQLLRRLRHKNVIQLVDVLYNEEKQKMYMVMEYCVCGMQEMLDSVPEKRFPVCQAHGYFCQLIDGLEYLHSQGIVHKDIKPGNLLLTTGGTLKISDLGVAEALHPFAADDTCRTSQGSPAFQPPEIANGLDTFSGFKVDIWSAGVTLYNITTGLYPFEGDNIYKLFENIGKGSYAIPGDCGPPLSDLLKGMLEYEPAKRFDIRQIRQHSWFRKKHPPAEAPVPIPPSPDTKDRWRSMTVVPYLEDLHGADEDEDLFDIEDDIIYTQDFTVPGQVPEEEASHNGQRRGLPKAVCMNGTEAAQLSTKSRAEGRAPNPARKACSASSKIRRLSACKQQ [S299D], 1.18 ± 0.16.
In the case of MEVVDPQQLGMFTEGELMSVGMDTFIHRIDSTEVIYQPRRKRAKLIGKYLMGDLLGEGSYGKVKEVLDSETLCRRAVKILKKKKLRRIPNGEANVKKEIQLLRRLRHKNVIQLVDVLYNEEKQKMYMVMEYCVCGMQEMLDSVPEKRFPVCQAHGYFCQLIDGLEYLHSQGIVHKDIKPGNLLLTTGGTLKISDLGVAEALHPFAADDTCRTSQGSPAFQPPEIANGLDTFSGFKVDIWSAGVTLYNITTGLYPFEGDNIYKLFENIGKGSYAIPGDCGPPLSDLLKGMLEYEPAKRFTIRQIRQHSWFRKKHPPAEAPVPIPPSPDTKDRWRSMTVVPYLEDLHGADEDEDLFDIEDDIIYTQDFTVPGQVPEEEASHNGQRRGLPKAVCMNGTEAAQLSTKSRAEGRAPNPARKACSASSKIRRLSACKQQ [S299T], the STK11 functional score was determined as 1.55 ± 0.16.
With MEVVDPQQLGMFTEGELMSVGMDTFIHRIDSTEVIYQPRRKRAKLIGKYLMGDLLGEGSYGKVKEVLDSETLCRRAVKILKKKKLRRIPNGEANVKKEIQLLRRLRHKNVIQLVDVLYNEEKQKMYMVMEYCVCGMQEMLDSVPEKRFPVCQAHGYFCQLIDGLEYLHSQGIVHKDIKPGNLLLTTGGTLKISDLGVAEALHPFAADDTCRTSQGSPAFQPPEIANGLDTFSGFKVDIWSAGVTLYNITTGLYPFEGDNIYKLFENIGKGSYAIPGDCGPPLSDLLKGMLEYEPAKRFCIRQIRQHSWFRKKHPPAEAPVPIPPSPDTKDRWRSMTVVPYLEDLHGADEDEDLFDIEDDIIYTQDFTVPGQVPEEEASHNGQRRGLPKAVCMNGTEAAQLSTKSRAEGRAPNPARKACSASSKIRRLSACKQQ [S299C], the STK11 functional score was 1.3 ± 0.2.
For the variant MEVVDPQQLGMFTEGELMSVGMDTFIHRIDSTEVIYQPRRKRAKLIGKYLMGDLLGEGSYGKVKEVLDSETLCRRAVKILKKKKLRRIPNGEANVKKEIQLLRRLRHKNVIQLVDVLYNEEKQKMYMVMEYCVCGMQEMLDSVPEKRFPVCQAHGYFCQLIDGLEYLHSQGIVHKDIKPGNLLLTTGGTLKISDLGVAEALHPFAADDTCRTSQGSPAFQPPEIANGLDTFSGFKVDIWSAGVTLYNITTGLYPFEGDNIYKLFENIGKGSYAIPGDCGPPLSDLLKGMLEYEPAKRFLIRQIRQHSWFRKKHPPAEAPVPIPPSPDTKDRWRSMTVVPYLEDLHGADEDEDLFDIEDDIIYTQDFTVPGQVPEEEASHNGQRRGLPKAVCMNGTEAAQLSTKSRAEGRAPNPARKACSASSKIRRLSACKQQ [S299L], the STK11 functional score turned out to be 0.649 ± 0.57.

Values taken from the supplement of paper PMC12338614.
